Values quoted from earlier work, collected in article PMC4250281.

Target: 14-3-3 zeta (Homo sapiens) (UniProt P63104)
UniProt P63104, sequence (P63104 whole entry): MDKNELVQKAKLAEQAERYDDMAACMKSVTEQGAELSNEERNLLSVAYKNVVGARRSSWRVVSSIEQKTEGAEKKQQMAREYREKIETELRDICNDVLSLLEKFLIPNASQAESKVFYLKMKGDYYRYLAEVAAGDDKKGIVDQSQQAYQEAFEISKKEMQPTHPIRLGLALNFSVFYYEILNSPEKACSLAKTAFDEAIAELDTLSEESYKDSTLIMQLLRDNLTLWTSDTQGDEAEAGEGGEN

Raf-1
Kd: 122 nM
